Test results from patent US20230295310A1 (ABCELLERA BIOLOGICS, published 2023).
Numbering of substitutions follows the chain as printed.

B1: GOMP001_bsAb_031 (bispecific antibody, human IgG1, kappa, L234A L235A)
heavy 1: QVQLVQSGAEVKKPGASVKVSCKASGYTFTSHWMHWVRKAPGQGLEWIGEFNPSNGRTNYNEEFKSKATMTVDTSTNTAYMELSSLRSEDTAVYYCASRDYDYDGRYFDYWGQGTLVTVSSASTKGPSVFPLAPSSKSTSGGTAALGCLVADYFPEPVTVSWNSGALTSGVHTFPAVLQSSGLYSLSSVVTVPSSSLGTQTYICNVNHKPSNTKVDEKVEPKSCDKTHTCPPCPAPEAAGGPSVFLFPPKPKDTLMISRTPEVTCVVVDVSHEDPEVKFNWYVDGVEVHNAKTKPREEQYNSTYRVVSVLTVLHQDWLNGKEYKCKVSNKALPAPIEKTISKAKGQPREPQVYTLPPSREEMTDNQVSLTCLVKGFYPSDIAVEWESNGQPENNYKTTPPVLMSDGSFFLASKLTVDKSRWQQGNVFSCSVMHEALHNHYTQKSLSLSPG
light 1: RIQMTQSPSSLSASVGDRVTITCSASSSVTYMYWYQDKPGKAPKLLIYDTSNLASGVPSRFSGSGSGTDYTFTISSLQPEDIATYYCQQWSSHIFTFGQGTKVEIKRTVAAPSVFIFPPSDKQLKSGTARVVCLLNNFYPREAKVQWKVDNALQSGNSQESVTEQDSKDSTYSLSSTLTLSKADYEKHKVYACEVTHQGLSSPVTKSFNRGEC
heavy 2: QGQLVESGGGVVQPGRSLRLSCAASGFTFRGFGMHWVRYAPGKGLEWVAIIYYDGKNKYYADRVKGRFTISRDNSKNTLYLQMNSLRAEDTAVYYCAKGGGYNWFDPWGRGTLVTVSSASTKGPSVFPLAPSSKSTSGGTAALGCLVKDYFPEPVTVSWNSGALTSGVHTFPAVLQSSGLYSLSSVVTVPSSSLGTQTYICNVNHKPSNTKVDKKVEPKSCDKTHTCPPCPAPEAAGGPSVFLFPPKPKDTLMISRTPEVTCVVVDVSHEDPEVKFNWYVDGVEVHNAKTKPREEQYNSTYRVVSVLTVLHQDWLNGKEYKCKVSNKALPAPIEKTISKAKGQPRRPRVYTLPPSREEMTKNQVSLVCLVKGFYPSDIAVEWESNGQPENNYKTTPPVLDSDGSFFLYSVLTVDKSRWQQGNVFSCSVMHEALHNHYTQKSLSLSPG
light 2: DIQMTQSPSSLSASVGDRVTITCRASQSISTYLNWYQRKPGDAPKLLIYSASSLQSGVPSRFSGSGSGTDFTLTISNLQPEDFAIYYCQRSYSPPFTFGPGTKLDIRRTVAAPSVFIFPPSDEQLKSGTASVVCLLNNFYPREAKVQWKVDNALQSGNSQESVTEQDSKDSTYSLSSTLTLSKADYEKHKVYACEVTHQGLSSPVTKSFNRGEC
B2: GOMP001_bsAb_037 (bispecific antibody, human IgG1, kappa, L234A L235A)
heavy 1: B1 heavy 1
light 1: B1 light 1
heavy 2: EVQLVESGGVLVKTGGSLRLSCVASGFSFKKAWMNWVRYAPGKGLEWVGRIKRNSDGGAADYAARVKDRFTLSRDDSKNTLYLQMNSLKTEDTAVYYCTTLDSSSWYVGYYYMDVWGRGTTVTVSSASTKGPSVFPLAPSSKSTSGGTAALGCLVKDYFPEPVTVSWNSGALTSGVHTFPAVLQSSGLYSLSSVVTVPSSSLGTQTYICNVNHKPSNTKVDKKVEPKSCDKTHTCPPCPAPEAAGGPSVFLFPPKPKDTLMISRTPEVTCVVVDVSHEDPEVKFNWYVDGVEVHNAKTKPREEQYNSTYRVVSVLTVLHQDWLNGKEYKCKVSNKALPAPIEKTISKAKGQPRRPRVYTLPPSREEMTKNQVSLVCLVKGFYPSDIAVEWESNGQPENNYKTTPPVLDSDGSFFLYSVLTVDKSRWQQGNVFSCSVMHEALHNHYTQKSLSLSPG
light 2: DIHMTQSPSSVSASLGDRVTFTCRASQNINNWLAWYQRKPGDAPKLLIYTASSLQSGVPSRFSGSGSGTDFTLTISSLQPDDFATYYCQQAHSLPITFGQGTRLGIKRTVAAPSVFIFPPSDEQLKSGTASVVCLLNNFYPREAKVQWKVDNALQSGNSQESVTEQDSKDSTYSLSSTLTLSKADYEKHKVYACEVTHQGLSSPVTKSFNRGEC
B3: GOMP001_bsAb_038 (bispecific antibody, human IgG1, kappa, L234A L235A)
heavy 1: B2 heavy 2
light 1: B2 light 2
heavy 2: QVQLVQSGAEVKKPGASVKVSCKASGYTFTSHWMHWVRYAPGQGLEWIGEFNPSNGRTNYNEKFKSKATMTVDTSTNTAYMELSSLRSEDTAVYYCASRDYDYDGRYFDYWGRGTLVTVSSASTKGPSVFPLAPSSKSTSGGTAALGCLVKDYFPEPVTVSWNSGALTSGVHTFPAVLQSSGLYSLSSVVTVPSSSLGTQTYICNVNHKPSNTKVDKKVEPKSCDKTHTCPPCPAPEAAGGPSVFLFPPKPKDTLMISRTPEVTCVVVDVSHEDPEVKFNWYVDGVEVHNAKTKPREEQYNSTYRVVSVLTVLHQDWLNGKEYKCKVSNKALPAPIEKTISKAKGQPRRPRVYTLPPSREEMTKNQVSLVCLVKGFYPSDIAVEWESNGQPENNYKTTPPVLDSDGSFFLYSVLTVDKSRWQQGNVFSCSVMHEALHNHYTQKSLSLSPG
light 2: B1 light 1 with R1D, D37R, K41D, K122E, R130S
B4: GOMP001_bsAb_039 (bispecific antibody, human IgG1, kappa, L234A L235A)
heavy 1: B1 heavy 1
light 1: B1 light 1
heavy 2: B2 heavy 2 with V10G, L18H, A59T, A60T, D68G, T71I
light 2: B2 light 2 with H3Q, L15V, F21I, N28D, L46I, S53N, D81E, Y87F, G105E
B5: GOMP001_bsAb_032 (bispecific antibody, human IgG1, kappa, L234A L235A)
heavy 1: B1 heavy 2
light 1: B1 light 2
heavy 2: B3 heavy 2
light 2: B1 light 1 with R1D, D37R, K41D, K122E, R130S

Biological target: human EGFR, C-terminal eGFP-tagged, on CHO-K1 cells (human, UniProt P00533 25-1210)
Assay: cell-based or functional assay

Row | EC50 CHO-K1 EGFR Low (nM); T cell activation bioassay, luciferase | EC50 CHO-K1 EGFR Med (nM); T cell activation bioassay, luciferase | Binder
1 | 1.66 nM | 0.446 nM | B1
2 | 0.183 nM | 0.028 nM | B2
3 | 0.0248 nM | 0.00489 nM | B3
4 | 0.369 nM | 0.0257 nM | B4
5 | 0.122 nM | 0.0482 nM | B5
